Test results published in patent publication US20260098090A1.

Biological target: T1, IL-2Rbg on mouse splenocytes (NK cells, CD8+ T cells, Treg cells) (mouse) (UniProt P16297)
T1 sequence (looked up) 1: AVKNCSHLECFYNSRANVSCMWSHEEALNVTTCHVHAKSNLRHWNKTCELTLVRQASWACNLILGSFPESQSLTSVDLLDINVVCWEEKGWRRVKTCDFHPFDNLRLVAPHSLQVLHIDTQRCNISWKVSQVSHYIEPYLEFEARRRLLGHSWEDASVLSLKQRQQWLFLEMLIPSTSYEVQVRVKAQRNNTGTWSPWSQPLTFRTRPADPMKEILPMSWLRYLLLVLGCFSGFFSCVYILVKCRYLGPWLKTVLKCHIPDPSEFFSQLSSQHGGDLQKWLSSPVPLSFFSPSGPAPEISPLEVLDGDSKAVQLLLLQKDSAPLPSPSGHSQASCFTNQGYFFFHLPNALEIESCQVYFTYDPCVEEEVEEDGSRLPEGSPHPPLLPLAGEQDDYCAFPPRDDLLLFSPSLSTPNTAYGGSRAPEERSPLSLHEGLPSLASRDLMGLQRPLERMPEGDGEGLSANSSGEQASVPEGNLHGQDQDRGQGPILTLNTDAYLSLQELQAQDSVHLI
T1 sequence (looked up) 2: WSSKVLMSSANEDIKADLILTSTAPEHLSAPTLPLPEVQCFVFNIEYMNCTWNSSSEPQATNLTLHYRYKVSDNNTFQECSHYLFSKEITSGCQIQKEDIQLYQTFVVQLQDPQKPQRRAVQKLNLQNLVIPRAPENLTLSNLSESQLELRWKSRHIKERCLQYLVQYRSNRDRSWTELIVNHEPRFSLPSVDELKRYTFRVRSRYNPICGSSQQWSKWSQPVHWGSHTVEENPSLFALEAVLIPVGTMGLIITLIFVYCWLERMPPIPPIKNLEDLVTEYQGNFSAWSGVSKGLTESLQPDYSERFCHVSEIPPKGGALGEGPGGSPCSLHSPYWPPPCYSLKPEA
Assay: cell-based or functional assay

pSTAT5 staining of murine splenocytes, EC50 on CD8+ T cells: 26 nM | pSTAT5 staining of murine splenocytes, EC50 on NK cells: 8.6 nM | pSTAT5 staining of murine splenocytes, EC50 on Treg cells: 42.5 nM
B1: CTRL-mIL2v2 (protein, part only; not given: control antibody chains and linker, not shown: small tags and cut ends)
heavy, part: APTSSSTSSSTAEAQQQQQQQQQQQQHLEQLLMDLQELLSRMENYRNLKLPEMLTAKFALPKQATELKDLQCLEDELGPLRHVLDLTQSKSFQLEDAENFISNIRVTVVKLKGSDNTFECQFDDESATVVDFLRRWIAFAQSIISTSPQ
